Reference: PMC9255381

Columns and labels:
Assay in all cases: BLI
[1] = target: vWF-A1 of D. marsupialis (D. marsupialis (Didelphis))
[2] = target: vWF-A1 of Didelphis virginiana (Didelphis virginiana)
[3] = target: vWF-A1 of Monodelphis emiliae (Monodelphis emiliae)
[4] = target: vWF-A1 of P. quica (P. quica (Philander))
[5] = target: vWF-A1 of C. minimus (C. minimus (Chironectes))
[6] = target: vWF-A1 of Lutreolina crassicaudata (Lutreolina crassicaudata)
[7] = target: vWF-A1 of Monodelphis domestica (Monodelphis domestica)
[8] = target: vWF-A1 of D. albiventus (D. albiventus (Didelphis))
[9] = target: vWF-A1 of D. aurita (made by site-directed mutagenesis of the D. marsupialis construct) (D. aurita (Didelphis))

| Substance | fold reduction of binding affinity against human vWF [1] [fold] | fold reduction of binding affinity against human vWF [2] [fold] | fold reduction of binding affinity against human vWF [3] [fold] | fold reduction of binding affinity against human vWF [4] [fold] | fold reduction of binding affinity against human vWF [5] [fold] | fold reduction of binding affinity against human vWF [6] [fold] | fold reduction of binding affinity against human vWF [7] [fold] | fold reduction of binding affinity against human vWF [8] [fold] | fold reduction of binding affinity against human vWF [9] [fold] |
| --- | --- | --- | --- | --- | --- | --- | --- | --- | --- |
| botrocetin (isoform A) (natural protein) | > 8 | > 8 | – | – | – | – | – | – | – |
| botrocetin (isoform B) (natural protein) | > 8 | > 8 | > 8 | > 8 | > 8 | > 8 | > 8 | > 8 | 8 |
